Measurements as given in patent publication EP4700044A1, “PROTEIN ANALOGUE AND USE THEREOF” (Shanghai Duomirui Biotechnology., Ltd., priority 2023, dated 2024).

B1: Compound 10.2: PAS-FGF21 dimer: PAS30FGF21 (SEQ ID NO: 14) modified by the side chain of Example 8.3 (conjugate)
chain: SPCASPAAPAPASPAAPAPSAPAAASAAAPAHPIPDSSPLLQFGGQVRQRYLYTDDAQQTEAHLEIREDGTVGGAADQSPESLLQLKALKPGVIQILGVKTSRFLCQRPDGALYGSLHFDPEACSFRERLLEDGYNVYQSEAHGLPLHLPGNKSPHRDPAPRGPARFLPLPGLPPAPPEPPGILAPQPPDVGSSDPLSMVGGSQGRSPSYES
modifications: dimer; side chain of Example 8.3
B2: Compound 12.6: Fatty acid-modified PAS-FGF21 dimer: PAS200FGF21 (SEQ ID NO: 17) as printed, modified by the side chain of Example 8.6 (conjugate)
chain: SPCASPAAPAPASPAAPAPSAPAAASAAAPAAASAAASAPSAASAAASPAAPSAPPAAASPAAPSAPPAAASPAAPAPASPAASAPSAPAAASPAAPAPASPAAPAPSAPAAASAAAPAAASAAASAPSASAAASAAAPAAASAAASAPSAASSAASPAAPSAPPAAASPAAPSAPPAAASPAAPAPASPAAPAPSAPAAAHPIPDSSPLLQFGGQVRQRYLYTDDAQQTEAHLEIREDGTVGGAADQSPESLLQLKALKPGVIQILGVKTSRFLCQRPDGALYGSLHFDPEACSFRERLLEDGYNVYQSEAHGLPLHLPGNKSPHRDPAPRGPARFLPLPGLPPAPPEPPGILAPQPPDVGSSDPLSMVGGSQGRSPSYES
modifications: dimer; fatty acid side chain of Example 8.6
B3: Compound 10.5: PAS-FGF21 dimer: PAS200FGF21 (SEQ ID NO: 17) modified by the side chain of Example 8.3 (conjugate)
chain: B2 chain
modifications: dimer; side chain of Example 8.3
B4: Compound 12.5: Fatty acid-modified PAS-FGF21 dimer: PAS200FGF21 (SEQ ID NO: 17) modified by the side chain of Example 8.5 (conjugate)
chain: B2 chain
modifications: dimer; fatty acid side chain of Example 8.5
B5: Compound 10.1: PAS-FGF21 dimer: PAS15FGF21 (SEQ ID NO: 13) modified by the side chain of Example 8.3 (conjugate)
chain: SPCASPAAPAPASPAAHPIPDSSPLLQFGGQVRQRYLYTDDAQQTEAHLEIREDGTVGGAADQSPESLLQLKALKPGVIQILGVKTSRFLCQRPDGALYGSLHFDPEACSFRERLLEDGYNVYQSEAHGLPLHLPGNKSPHRDPAPRGPARFLPLPGLPPAPPEPPGILAPQPPDVGSSDPLSMVGGSQGRSPSYES
modifications: dimer; side chain of Example 8.3
B6: Compound 12.1: Fatty acid-modified PAS-FGF21 dimer: PAS15FGF21 (SEQ ID NO: 13) modified by the side chain of Example 8.5 (conjugate)
chain: B5 chain
modifications: dimer; fatty acid side chain of Example 8.5
B7: Compound 5.3: FGF21D46C mutant (SEQ NO: 7) modified by the albumin-binding agent of Example 2.1 (conjugate)
chain: HPIPDSSPLLQFGGQVRQRYLYTDDAQQTEAHLEIREDGTVGGAACQSPESLLQLKALKPGVIQILGVKTSRFLCQRPDGALYGSLHFDPEACSFRERLLEDGYNVYQSEAHGLPLHLPGNKSPHRDPAPRGPARFLPLPGLPPAPPEPPGILAPQPPDVGSSDPLSMVGGSQGRSPSYES
modifications: albumin-binding agent of Example 2.1
B8: Compound 10.4: PAS-FGF21 dimer: PAS100FGF21 (SEQ ID NO: 16) modified by the side chain of Example 8.3 (conjugate)
chain: SPCASPAAPAPASPAAPAPSAPAAASAAAPAAASAAASAPSAASAAASPAAPSAPPAAASPAAPSAPPAAASPAAPAPASPAASAPSAPAAASPAAPAPASHPIPDSSPLLQFGGQVRQRYLYTDDAQQTEAHLEIREDGTVGGAADQSPESLLQLKALKPGVIQILGVKTSRFLCQRPDGALYGSLHFDPEACSFRERLLEDGYNVYQSEAHGLPLHLPGNKSPHRDPAPRGPARFLPLPGLPPAPPEPPGILAPQPPDVGSSDPLSMVGGSQGRSPSYES
modifications: dimer; side chain of Example 8.3
B9: Compound 10.3: PAS-FGF21 dimer: PAS50FGF21 (SEQ ID NO: 15) modified by the side chain of Example 8.3 (conjugate)
chain: SPCASPAAPAPASPAAPAPSAPAAASAAAPAAASAAASAPSAASAAASPAAHPIPDSSPLLQFGGQVRQRYLYTDDAQQTEAHLEIREDGTVGGAADQSPESLLQLKALKPGVIQILGVKTSRFLCQRPDGALYGSLHFDPEACSFRERLLEDGYNVYQSEAHGLPLHLPGNKSPHRDPAPRGPARFLPLPGLPPAPPEPPGILAPQPPDVGSSDPLSMVGGSQGRSPSYES
modifications: dimer; side chain of Example 8.3
B10: Compound 12.3: Fatty acid-modified PAS-FGF21 dimer: PAS50FGF21 (SEQ ID NO: 15) modified by the side chain of Example 8.5 (conjugate)
chain: B9 chain
modifications: dimer; fatty acid side chain of Example 8.5

Columns and labels:
[1] = biological target: T1, FGFR1c and the cofactor β-Klotho (Homo sapiens, UniProt P11362+Q86Z14); test: dual-luciferase reporter gene assay in iLite FGF21 assay ready cells; format: cell-based
T1 construct: host or cells: iLite FGF21 assay ready cells (genetically engineered reporter gene cell line)
Source text: iLite FGF21 assay ready cells (purchased from SAVR) is a genetically engineered reporter gene cell line that responds to signals downstream to FGF21 agonism through the expression of firefly luciferase. The receptor FGFR1c and the cofactor β-Klotho were co-overexpressed on the surface of iLite FGF21 assay ready cells and have undergone genetic optimization to enhance sensitivity, such that FGF21 will cause an increase in luciferase expression in a dose-response manner. The luciferase activity detection kit was purchased from Promega (catalog number #E2980).
iLite FGF21 assay ready cells were cultured adherently in basal medium (DMEM Gluta Max, purchased from Gibco) containing 10% fetal bovine serum (FBS, purchased from Gibco) and 1% penicillin/streptomycin (purchased from Gibco). For the activity determination experiment, […] cells per well and test samples such as FGF21 mutant proteins and FGF21 conjugate molecules modified with albumin-binding agent were added to all-white 96-well culture plates (purchased from Corning), and the chemiluminescence values were detected in a microplate reader according to the instructions of the luciferase activity detection kit. Finally, the half-maximal effective concentration (EC50) values of the tested samples were obtained by means of four-parameter fitting.

[2] = pharmacokinetic test in minipigs; format: in vivo; settings: 1 mg/kg, subcutaneous injection, plasma, human FGF21 ELISA
Method: The pharmacokinetic properties of protein analogs can be tested in mice or minpigs.
Minipig experiment (N = 3): The injection dose was 1 mg/kg, and the injection method was subcutaneous injection. The blood-collection time points for plasma samples were 0.083, 0.25, 0.5, 1, 2, 4, 6, 8, 12, 24, 48, 72, 96, 120, 144, 168, 192, 216, 240, 264, 288 h. The blood was collected into EDTA·2K-coated test tubes (which must be temporarily stored on ice) and centrifuged at 1200 × g for 10 minutes at 4°C. Subsequently, the plasma was transferred to Micronic tubes and stored at -20°C. The human FGF21 detection ELISA kit (CAT: RD191108200R) produced by Biovendor was used to monitor the blood drug concentration.

[3] = system: high-fat diet-induced db/db mice; test: pharmacodynamic test in db/db mice induced by high-fat diet (NASH model); format: in vivo; settings: subcutaneous injection once every three days, 6 weeks, liver sections, hematoxylin-eosin staining
Source text: Establishment of a db/db mouse model induced by high-fat diet: Male db/db mice, 8 weeks old, were adaptively fed with a standard diet for 2-3 days, after which all feed was replaced with 60% high-fat feed for rearing. After 3 weeks of high-fat feed feeding, the NASH model could be obtained. Administration: N = 6, subcutaneous injection of Vehicle and protein analogues (5 or 20 nmol/kg) was given once every three days, with an administration period of 6 weeks.
At the end of the administration, liver tissue sections were taken for hematoxylin-eosin staining to detect the effect of protein analogs on the non-alcoholic fatty liver disease activity score (NAS score) in high-fat diet-induced db/db mice.

[4] = Example 11, four-parameter fitting
[5] = Example 13, four-parameter fitting

T1 sequence (P11362 22-822): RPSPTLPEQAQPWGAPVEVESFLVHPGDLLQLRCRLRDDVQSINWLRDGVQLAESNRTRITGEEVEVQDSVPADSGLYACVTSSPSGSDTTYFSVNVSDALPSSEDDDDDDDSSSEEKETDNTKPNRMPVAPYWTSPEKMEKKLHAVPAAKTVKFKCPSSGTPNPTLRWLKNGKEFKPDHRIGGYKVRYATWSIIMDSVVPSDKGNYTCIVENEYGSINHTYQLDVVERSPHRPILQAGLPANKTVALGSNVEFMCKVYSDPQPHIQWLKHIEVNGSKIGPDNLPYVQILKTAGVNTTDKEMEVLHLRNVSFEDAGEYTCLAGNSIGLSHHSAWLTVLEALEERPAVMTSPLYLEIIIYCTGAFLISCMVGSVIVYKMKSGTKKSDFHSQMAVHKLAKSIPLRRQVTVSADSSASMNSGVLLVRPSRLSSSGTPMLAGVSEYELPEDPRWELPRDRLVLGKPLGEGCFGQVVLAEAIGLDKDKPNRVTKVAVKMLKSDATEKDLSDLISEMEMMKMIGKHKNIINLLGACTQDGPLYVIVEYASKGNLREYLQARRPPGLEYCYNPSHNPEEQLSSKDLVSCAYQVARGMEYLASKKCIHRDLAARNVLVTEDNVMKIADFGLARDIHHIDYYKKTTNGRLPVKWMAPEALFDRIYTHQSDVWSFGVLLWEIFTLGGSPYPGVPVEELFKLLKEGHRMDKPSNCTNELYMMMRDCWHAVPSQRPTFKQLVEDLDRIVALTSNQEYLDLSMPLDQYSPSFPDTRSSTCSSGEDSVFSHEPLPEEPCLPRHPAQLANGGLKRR
T1 sequence (Q86Z14 whole entry): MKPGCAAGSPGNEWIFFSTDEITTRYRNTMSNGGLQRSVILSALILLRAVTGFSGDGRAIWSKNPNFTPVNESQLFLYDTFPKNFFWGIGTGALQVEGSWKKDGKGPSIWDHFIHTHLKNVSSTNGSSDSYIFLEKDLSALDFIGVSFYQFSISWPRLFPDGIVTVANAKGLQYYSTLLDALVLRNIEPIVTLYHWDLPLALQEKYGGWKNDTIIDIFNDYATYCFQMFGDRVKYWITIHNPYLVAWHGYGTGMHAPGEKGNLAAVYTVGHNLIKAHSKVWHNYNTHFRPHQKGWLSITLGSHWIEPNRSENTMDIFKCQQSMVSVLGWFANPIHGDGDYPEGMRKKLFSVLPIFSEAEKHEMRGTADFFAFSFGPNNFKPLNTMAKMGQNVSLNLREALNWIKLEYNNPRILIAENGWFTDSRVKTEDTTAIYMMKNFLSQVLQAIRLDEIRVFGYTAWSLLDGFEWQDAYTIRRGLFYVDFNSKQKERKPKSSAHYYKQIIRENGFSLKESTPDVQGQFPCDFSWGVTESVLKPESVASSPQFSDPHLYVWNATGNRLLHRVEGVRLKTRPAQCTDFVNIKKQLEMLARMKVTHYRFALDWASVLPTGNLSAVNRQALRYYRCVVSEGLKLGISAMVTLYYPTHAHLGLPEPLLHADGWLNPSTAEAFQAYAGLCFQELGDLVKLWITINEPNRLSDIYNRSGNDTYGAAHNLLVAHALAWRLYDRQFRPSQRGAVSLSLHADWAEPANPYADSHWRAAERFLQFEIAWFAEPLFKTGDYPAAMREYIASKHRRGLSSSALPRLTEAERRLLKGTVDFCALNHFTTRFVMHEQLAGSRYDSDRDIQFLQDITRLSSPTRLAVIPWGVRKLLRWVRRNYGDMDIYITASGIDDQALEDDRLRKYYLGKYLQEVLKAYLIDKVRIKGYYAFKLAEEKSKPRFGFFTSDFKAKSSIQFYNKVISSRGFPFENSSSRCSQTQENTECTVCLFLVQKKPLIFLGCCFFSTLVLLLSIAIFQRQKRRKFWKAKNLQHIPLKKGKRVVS

Molecule | EC50 [1, 4] [nM] | EC50 [1, 5] [nM] | also measured
B1 | 0.04 | – | –
B2 | – | – | half-life [2]: 61.3 ± 1.1 h
B3 | 0.15 | – | –
B4 | – | 0.09 | –
B5 | 0.07 | – | –
B6 | – | 0.09 | NAS score ([3]; 5 nmol/kg): 3.83 ± 0.98; NAS score ([3]; 20 nmol/kg): 3.33 ± 0.82
B7 | – | – | EC50 ([1]; Example 6, four-parameter fitting): 0.24 nM
B8 | 0.13 | – | –
B9 | 0.02 | – | –
B10 | – | 0.11 | NAS score ([3]; 5 nmol/kg): 4.33 ± 1.37; NAS score ([3]; 20 nmol/kg): 3.00 ± 0.89
